In US20230204594A1, “SYSTEMS AND METHODS FOR REAL-TIME CELLULAR DRUG-TARGET ENGAGEMENT” (NERD BIO LLC, priority 2021, published 2023):

How the values were obtained:
Assay in all cases: cell-based or functional assay
[1] = target: MTH1 target polypeptide with a 10 amino acid spacer and a carboxy terminal S-tag acceptor peptide
[2] = target: MTH1-S-tag fusion protein with no linker between MTH1 and the S-tag peptide
[3] = target: MTH1 target polypeptide with a 3 amino acid spacer and a carboxy terminal S-tag acceptor peptide

Measured: S protein concentration at which the fluorescent signal starts to saturate

His tagged RNase donor protein (S protein), sequence (P61823 other isoform, or with tags, fused parts or gaps limits assumed): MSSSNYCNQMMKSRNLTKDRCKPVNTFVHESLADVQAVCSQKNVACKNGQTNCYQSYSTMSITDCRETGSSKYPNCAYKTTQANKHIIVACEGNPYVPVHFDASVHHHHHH

His tagged RNase donor protein (S protein) (from UniProt P61823 47-150)
1 to 2 ng/µL: all assays above
